Results: article PMC9953004, “Scandium-44 Radiolabeled Peptide and Peptidomimetic Conjugates Targeting Neuropilin-1 Co-Receptor as Potential Tools for Cancer Diagnosis and Anti-Angiogenic Therapy” (Biomedicines, 2023)
Where a SMILES comes first, the peptide text is derived from it. Where no end group is shown, it is not given here. Side-chain parts run from the residue outwards. [ ]: non-standard residue; d: D form. The star is where a group is joined. DOTA = O=C(O)CN1CCN(CC(=O)O)CCN(CC(=O)*)CCN(CC(=O)O)CC1; hArg = N=C(N)NCCCC[C@H](N)C(=O)O; Dab = NCC[C@H](N)C(=O)O; Ahx = NCCCCCC(=O)O

What was measured:
[1] = target: T1, VEGF-A165/NRP-1 complex (Homo sapiens, UniProt O14786); experiment: Competitive NRP-1-binding inhibition assay (competitive ELISA, bt-VEGF-A165 vs coated NRP-1); settings: for IC50 / logIC50 ± SD: inhibition of VEGF-A165/NRP-1 complex formation, mean ± SD, n = 3; for binding affinity for NRP-1: summary of competitive ELISA results
T1 construct: purchased BioLegend (NRP-1); Abcam (bt-VEGF-A165)
T1 sequence (O14786 22-641 limits assumed): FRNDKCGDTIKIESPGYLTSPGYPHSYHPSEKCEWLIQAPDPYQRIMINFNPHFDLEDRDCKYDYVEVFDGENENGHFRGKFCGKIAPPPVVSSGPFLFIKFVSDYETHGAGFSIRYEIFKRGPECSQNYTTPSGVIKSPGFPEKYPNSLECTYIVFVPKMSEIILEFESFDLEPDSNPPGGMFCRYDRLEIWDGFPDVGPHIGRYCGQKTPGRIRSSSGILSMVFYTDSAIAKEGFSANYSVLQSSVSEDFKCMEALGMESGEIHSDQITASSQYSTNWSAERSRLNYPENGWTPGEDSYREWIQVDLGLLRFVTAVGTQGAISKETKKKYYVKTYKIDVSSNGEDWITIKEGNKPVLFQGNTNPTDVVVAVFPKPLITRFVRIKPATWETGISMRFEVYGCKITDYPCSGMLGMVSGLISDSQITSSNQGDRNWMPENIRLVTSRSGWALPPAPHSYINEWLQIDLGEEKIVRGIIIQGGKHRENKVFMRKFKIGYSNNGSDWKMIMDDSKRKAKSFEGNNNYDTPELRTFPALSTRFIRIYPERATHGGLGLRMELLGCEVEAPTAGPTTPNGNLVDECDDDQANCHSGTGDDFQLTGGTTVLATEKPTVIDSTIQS
Description: The study of biological activity (inhibition of VEGF-A165/NRP-1 binding) of Sc-1, Sc-1bis, Sc-2, Sc-3 and Ga-3 compounds was tested by competitive ELISA test. The method used was similar to the one previously described. Briefly, the first step was to coat the bottom surface of a 96-well plate using 100 µL (200 ng/well) of recombinant human NRP-1 and incubate overnight at 4 °C. Nonspecific binding was blocked with 0.5% BSA (bovine serum albumin) in PBS. Following this, 50 µL of the solution of tested compound in PBS, in the selected concentrations (100 [µM], 50 [µM], 25 [µM], 12.5 [µM] and […]), and 50 µL (400 ng/mL) of human (bt)-VEGF-A165 in PBS containing 4 µg/mL of heparin were added. After 2 h of incubation at room temperature, the plate was washed and treated with a streptavidin–horseradish peroxidase conjugate in PBS (1:100) for 45 min. After the final wash, the chemiluminescence was quantified immediately after addition of 100 μL chemiluminescent substrate. Wells incubated with (bt)-VEGF-A165 served only as positive control (P), while wells not coated with NRP-1 were used as negative control (NS). Percentages of inhibition were calculated according to the following formula. % inhibition=100% −(S−NS)·100%/P−NS where: S—measured signal, NS—negative control signal, P—positive control signal. Test IC50 [µM] values (mean ± SD of three independent experiments) were determined by nonlinear regression analysis (log(inhibitor) vs. normalized response—variable slope) generated in GraphPad Prism 9.0.0 program (Graph Pad, San Diego, CA, USA).

[2] = physchem; type: physicochemical; settings: for logP: pH 7.4, logP ± SD; for logP ± SD: pH 7.4
Description: The lipophilicity value, defined as the decimal logarithm (logP) of the partition coefficient (P), was tested in the system of two immiscible (but saturated with each other) phases: 0.1 M PBS solution, pH 7.4, and n-octanol, in three independent experiments. Partition coefficient was determined as a ratio of radioactivity of the organic (n-octanol) and aqueous (PBS solution) phases and was shown as the mean ± SD. The lipophilicity test was carried out as follows: the tested radiocompound dissolved in 10–20 µL of PBS was incubated and intensively mixed in an equal amount of these two phases. After centrifugation, radioactivity of appropriate amounts of the separated organic (500 µL) and aqueous (100 µL) phases were measured on the Wizard gamma counter. Differences in the volume of phases taken for measurement resulted from the very low radioactivity of organic phases and were included in the calculations. Additionally, to confirm the stability of the studied radiocompounds during the experiment, the RP-HPLC analyses of the aqueous phase were performed after each lipophilicity test.

[3] = type: physicochemical; settings: pH 7.4
Description: (§1) Radioconjugate stability tests in 0.1 M PBS solution, 1 mM cysteine (Cys) solution, 1 mM histidine (His) solution and human serum (HS) were performed under rigorous conditions according to the procedure described in detail in our previous paper. In brief, isolated radioconjugates were dissolved in 50 µL PBS and appropriate volume of Cys, His and HS solution and then incubated at 37 °C. After the specified incubation time (depending on the half-life of a given radionuclide), which was up to 4–8 h for the ^44Sc-radiocompounds, 4 h for the ^68Ga-radiocompounds and about 6–14 days for the ^177Lu-radiocompounds, aliquots of solution were withdrawn from the mixture and the composition of the solution was analyzed on RP-HPLC in System 3 or 4 with gamma detection. The concentrations of Cys and His solutions were about 1000 times higher than that of the studied radiocompound. In the case of the radioconjugate stability study in HS, the concentration of the radiocompound was a maximum of 2–25 nmol/mL in 100% human serum. After incubation, the protein components were precipitated with a 2.5-fold volume excess of ethanol prior to RP-HPLC analysis, and then both the supernatant and precipitate radioactivity were measured with a Wizard gamma counter. The percentage of radioactivity remaining in the supernatant and bound by the precipitated serum protein components was calculated as the ratio of the radioactivity of the supernatant or the precipitate, respectively, to the sum of the radioactivity of the supernatant and the precipitate.

[4] = type: in vitro ADME, human
Description: as §1

Molecule	logIC50 ± SD [1]	binding affinity for NRP-1 [1]	stability in PBS buffer [3]	stability in human serum [4]	other results
CC(C)C[C@@H](NC(=O)[C@H]1CCCN1C(=O)[C@H]1CCCN1C(=O)[C@H](N)CCCNC(=N)N)C(=O)N[C@H](Cc1c[nH]c2ccccc12)C(=O)N[C@@H](C(=O)N[C@H](C)C(=O)N[C@H](CCCCNC(=O)CN1CCN(CC(=O)O)CCN(CC(=O)O)CCN(CC(=O)O)CC1)C(=O)O)[C@H](C)O [Ga-3, ^DR7A-^DLys(DOTA-Ga)] (H-[dR][dP][dP][dL][dW][dT][dA][dK](DOTA)-OH)					IC50 [1]: > 100 µM
N=C(N)NCCCC[C@H](N)C(=O)NCCCC[C@H](N)C(=O)N[C@@H](CCN)C(=O)N1CCC[C@H]1C(=O)N[C@@H](CCCNC(=N)N)C(=O)O [K4R, Lys(hArg)-Dab-Pro-Arg] (H-K(hArg)[Dab]PR-OH)	−5.32 ± 0.12	high binding affinity			
CC(C)C[C@H](NC(=O)[C@H](Cc1c[nH]c2ccccc12)NC(=O)[C@@H](NC(=O)[C@H](C)NC(=O)CCCCCNC(=O)CN1CCN(CC(=O)O)CCN(CC(=O)O)CCN(CC(=O)O)CC1)[C@@H](C)O)C(=O)N1CCC[C@H]1C(=O)N1CCC[C@H]1C(=O)N[C@@H](CCCNC(=N)N)C(=O)O [Sc-1, Sc-DOTA-Ahx-A7R] ({DOTA-Ahx}-ATWLPPR-OH)	−4.65 ± 0.12	high binding affinity			
CC(C)C[C@H](NC(=O)[C@H](Cc1c[nH]c2ccccc12)NC(=O)[C@@H](NC(=O)[C@H](C)NC(=O)[C@@H](N)CCCCNC(=O)CN1CCN(CC(=O)O)CCN(CC(=O)O)CCN(CC(=O)O)CC1)[C@@H](C)O)C(=O)N1CCC[C@H]1C(=O)N1CCC[C@H]1C(=O)N[C@@H](CCCNC(=N)N)C(=O)O [Sc-1bis, Lys(DOTA-Sc)-A7R] (H-K(DOTA)ATWLPPR-OH)	−4.74 ± 0.01	high binding affinity			
N=C(N)NCCCC[C@H](N)C(=O)NCCCC[C@H](N)C(=O)N[C@@H](CCNC(=O)CCCCCNC(=O)CN1CCN(CC(=O)O)CCN(CC(=O)O)CCN(CC(=O)O)CC1)C(=O)N1CCC[C@H]1C(=O)N[C@@H](CCCNC(=N)N)C(=O)O [Sc-2, Lys(hArg)-Dab(Ahx-DOTA-Sc)-Pro-Arg] (H-K(hArg)[Dab]([Ahx-DOTA])PR-OH)	−4.73 ± 0.03	high binding affinity			
CC(C)C[C@@H](NC(=O)[C@H]1CCCN1C(=O)[C@H]1CCCN1C(=O)[C@H](N)CCCNC(=N)N)C(=O)N[C@H](Cc1c[nH]c2ccccc12)C(=O)N[C@@H](C(=O)N[C@H](C)C(=O)N[C@H](CCCCNC(=O)CN1CCN(CC(=O)O)CCN(CC(=O)O)CCN(CC(=O)O)CC1)C(=O)O)[C@H](C)O [Sc-3, ^DR7A-^DLys(DOTA-Sc)] (H-[dR][dP][dP][dL][dW][dT][dA][dK](DOTA)-OH)		very low binding affinity			
CC(C)C[C@H](NC(=O)[C@H](Cc1c[nH]c2ccccc12)NC(=O)[C@@H](NC(=O)[C@H](C)NC(=O)CCCCCNC(=O)CN1CCN(CC(=O)O)CCN(CC(=O)O)CCN(CC(=O)O)CC1)[C@@H](C)O)C(=O)N1CCC[C@H]1C(=O)N1CCC[C@H]1C(=O)N[C@@H](CCCNC(=N)N)C(=O)O [^44Sc-1, [^44Sc]Sc-DOTA-Ahx-A7R, metal not drawn] ({DOTA-Ahx}-ATWLPPR-OH)			complete stability	insufficient stability	logP [2]: -3.44 ± 0.02
CC(C)C[C@H](NC(=O)[C@H](Cc1c[nH]c2ccccc12)NC(=O)[C@@H](NC(=O)[C@H](C)NC(=O)[C@@H](N)CCCCNC(=O)CN1CCN(CC(=O)O)CCN(CC(=O)O)CCN(CC(=O)O)CC1)[C@@H](C)O)C(=O)N1CCC[C@H]1C(=O)N1CCC[C@H]1C(=O)N[C@@H](CCCNC(=N)N)C(=O)O [^44Sc-1bis, [^44Sc]Lys(DOTA-Sc)-A7R, metal not drawn] (H-K(DOTA)ATWLPPR-OH)			complete stability	insufficient stability	logP ± SD [2]: −3.56 ± 0.06
N=C(N)NCCCC[C@H](N)C(=O)NCCCC[C@H](N)C(=O)N[C@@H](CCNC(=O)CCCCCNC(=O)CN1CCN(CC(=O)O)CCN(CC(=O)O)CCN(CC(=O)O)CC1)C(=O)N1CCC[C@H]1C(=O)N[C@@H](CCCNC(=N)N)C(=O)O [^44Sc-2, [^44Sc]Sc-DOTA-Ahx-K4R, metal not drawn] (H-K(hArg)[Dab]([Ahx-DOTA])PR-OH)			complete stability	insufficient stability	logP [2]: -2.57 ± 0.02
CC(C)C[C@@H](NC(=O)[C@H]1CCCN1C(=O)[C@H]1CCCN1C(=O)[C@H](N)CCCNC(=N)N)C(=O)N[C@H](Cc1c[nH]c2ccccc12)C(=O)N[C@@H](C(=O)N[C@H](C)C(=O)N[C@H](CCCCNC(=O)CN1CCN(CC(=O)O)CCN(CC(=O)O)CCN(CC(=O)O)CC1)C(=O)O)[C@H](C)O [^44Sc-3, [^44Sc]^DR7A-^DLys(DOTA-Sc), metal not drawn] (H-[dR][dP][dP][dL][dW][dT][dA][dK](DOTA)-OH)			complete stability	insufficient stability	logP ± SD [2]: −3.61 ± 0.03
CC(C)C[C@H](NC(=O)[C@H](Cc1c[nH]c2ccccc12)NC(=O)[C@@H](NC(=O)[C@H](C)NC(=O)[C@@H](N)CCCCNC(=O)CN1CCN(CC(=O)O)CCN(CC(=O)O)CCN(CC(=O)O)CC1)[C@@H](C)O)C(=O)N1CCC[C@H]1C(=O)N1CCC[C@H]1C(=O)N[C@@H](CCCNC(=N)N)C(=O)O [^68Ga-1bis, [^68Ga]Lys(DOTA-Ga)-A7R, metal not drawn] (H-K(DOTA)ATWLPPR-OH)			complete stability	insufficient stability	logP ± SD [2]: −4.18 ± 0.07
CC(C)C[C@@H](NC(=O)[C@H]1CCCN1C(=O)[C@H]1CCCN1C(=O)[C@H](N)CCCNC(=N)N)C(=O)N[C@H](Cc1c[nH]c2ccccc12)C(=O)N[C@@H](C(=O)N[C@H](C)C(=O)O)[C@H](C)O [^DR7A, DArg-DPro-DPro-DLeu-DTrp-DThr-DAla, reference compound] (H-[dR][dP][dP][dL][dW][dT][dA]-OH; C-terminus assumed)		very low binding affinity			IC50 [1]: > 100 µM
ATWLPPR-OH [A7R, Ala-Thr-Trp-Leu-Pro-Pro-Arg, reference compound]	−4.74 ± 0.02	high binding affinity			
